Source: patent publication KR20160103767A (dated 2016)

T1: 재조합 인간 TFPI (Recombinant human Tissue Factor Pathway Inhibitor, full-form, Cat.No.TFPI-875H, Creative Biomart) (human, UniProt P10646 29-304)
T1 sequence: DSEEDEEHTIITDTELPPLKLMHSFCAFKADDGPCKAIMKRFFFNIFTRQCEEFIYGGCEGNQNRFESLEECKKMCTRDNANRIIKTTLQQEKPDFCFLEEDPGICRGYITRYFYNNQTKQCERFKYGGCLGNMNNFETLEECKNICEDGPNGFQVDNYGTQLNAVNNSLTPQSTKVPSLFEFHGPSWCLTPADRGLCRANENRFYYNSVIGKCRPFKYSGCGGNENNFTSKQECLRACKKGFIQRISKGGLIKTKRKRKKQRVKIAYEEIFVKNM

B1: 클론 T417 (anti-TFPI chimeric antibody) (antibody, V domains shown)
VH: EVHLVESGGDLVKPGGSLKLSCAASGFTFSSYAMSWVRQTPDKRLEWVATITTGGSYTYYPDSVKGRFTISRDNAKNTLYLQMSSLKSEDTAMYYCARQDGNFLMDYWGQGTTVTVSS
VL: not shown
B2: 클론 T308 (anti-TFPI chimeric antibody) (antibody, V domains shown)
VH: EVKLVESGGGLVKPGGSLKLSCAASGFTFSNYPMSWVRQTPEKRLEWVATISNSGSYTYYPDSVKGRFTISRDNAKNTLYLQMNSLRSEDTAMYYCARQVYGNYEDFDYWGQGTTLTVSS
VL: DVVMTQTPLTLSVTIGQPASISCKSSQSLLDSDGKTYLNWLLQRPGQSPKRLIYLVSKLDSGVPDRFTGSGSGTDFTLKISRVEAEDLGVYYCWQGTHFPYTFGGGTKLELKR

Biological target: T1, 재조합 인간 TFPI (Recombinant human Tissue …)
Test: cell-based or functional assay

Binder	FXa activity assay: TFPI inhibition (10nM comparison), relative to positive control (mAb2021)	FXa activity assay: TFPI inhibition at 10nM antibody, relative to positive control	FXa activity assay: TFPI inhibition at 10nM antibody, relative to positive control (mAb2021)	FXa activity assay: TFPI inhibition at 40nM antibody, relative to positive control	TF/FVIIa/FXa complex assay: TFPI inhibition at 50nM antibody, relative to positive control (no antibody, no TFPI)	TF/FVIIa/FXa complex assay: TFPI inhibition at 100nM antibody, relative to positive control (no antibody, no TFPI)	TF/FVIIa/FXa complex assay: TFPI inhibition, relative to positive control (no antibody, no TFPI)
B1	77%	72%	78.4%	89%	100%	100%	100%
B2	–	~64%	–	91%	~87%	100%	–
